Experiments:
[1] = biological target: T1, ataxin-3 fragment containing all three UIM sequences (residues 194-361, UIM_123) (human, UniProt P54252 194-361); test: NMR titration
[2] = biological target: T1, ataxin-3 fragment containing all three …; test: NMR titration; remark: listed apart in the source

T1 sequence (P54252 194-361): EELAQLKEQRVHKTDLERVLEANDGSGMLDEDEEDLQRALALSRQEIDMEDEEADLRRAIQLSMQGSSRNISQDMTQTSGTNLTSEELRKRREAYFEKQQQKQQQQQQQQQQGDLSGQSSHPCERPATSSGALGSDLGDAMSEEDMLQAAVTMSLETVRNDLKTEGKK

B1: human parkin ubiquitin-like domain (residues 1-77) (domain or fragment, UniProt O60260 1-77, looked up)
chain: MIVFVRFNSSHGFPVEVDSDTSIFQLKEVVAKRQGVPADQLRVIFAGKELRNDWTVQNCDLDQQSIVHIVQRPWRKG
- KD of each individual UIM (UIM1, UIM2, UIM3) in UIM_123 [1]: > 1000 µM
- Kd [2]: 236 ± 14 µM

From paper PMC3807529 (Biochemistry, 2013)
